The chains are these.
B1: PDGFRα-Fc wild type (Fc fusion)
chain: QLSLPSILPNENEKVVQLNSSFSLRCFGESEVSWQYPMSEEESSDVEIRNEENNSGLFVTVLEVSSASAAHTGLYTCYYNHTQTEENELEGRHIYIYVPDPDVAFVPLGMTDYLVIVEDDDSAIIPCRTTDPETPVTLHNSEGVVPASYDSRQGFNGTFTVGPYICEATVKGKKFQTIPFNVYALKATSELDLEMEALKTVYKSGETIVVTCAVFNNEVVDLQWTYPGEVKGKGITMLEEIKVPSIKLVYTLTVPEATVKDSGDYECAARQATREVKEMKKVTISVHEKGFIEIKPTFSQLEAVNLHEVKHFVVEVRAYPPPRISWLKNNLTLIENLTEITTDVEKIQEIRYRSKLKLIRAKEEDSGHYTIVAQNEDAVKSYTFELLTQVPSSILDLVDDHHGSTGGQTVRCTAEGTPLPDIEWMICKDIKKCNNETSWTILANNVSNIITEIHSRDRSTVEGRVTFAKVEETIAVRCLAKNLLGAENRELKLVAPTLRSELTVA
B2: PDGFRα-Fc I139E + V242K (Fc fusion)
chain: B1 chain with I116E, V219K
B3: PDGFRα-Fc Y206S (Fc fusion)
chain: B1 chain with Y183S
B4: PDGFRα-Fc I139E (Fc fusion)
chain: B1 chain with I116E
B5: PDGFRα-Fc Y206S + V242K (Fc fusion)
chain: B1 chain with Y183S, V219K
B6: PDGF-BB (ligand, UniProt P01127 82-190, looked up)
chain: SLGSLTIAEPAMIAECKTRTEVFEISRRLIDRTNANFLVWPPCVEVQRCSGCCNNRNVQCRPTQVQLRPVQVRKIEIVRKKPIFKKATVTLEDHLACKCETVAAARPVT
modifications: NT-647 dye on amines (amine reactive labelling kit RED-NHS) in the MST experiments; unlabelled in the signalling assays
notes: PDGF-B chain of dimeric PDGF-BB, bought recombinant protein; also called dimeric PDGF-BB; source: bought: R&D # 220-BB
B7: PDGFRα-Fc I139E + Y206S (Fc fusion)
chain: B1 chain with I116E, Y183S
B8: PDGFRα-Fc I139A + Y206A (Fc fusion)
chain: B1 chain with I116A, Y183A

The target of the assay “PDGF-BB” is B6. The assay can be described thus: cell-based or functional assay.
In assay [1] the target is T1, gH/gL/gO trimer of HCMV TB40-BAC4 (human cytomegalovirus, strain TB40/E …). The assay can be described thus: cell-based or functional assay.
The target in assay [2] is T1, gH/gL/gO trimer of HCMV TB40-BAC4. The assay can be described thus: cell-based or functional assay. The source holds these as a separate data set.
For assay [3] the target is unchanged. Put plainly: cell-based or functional assay. This is another data set of the same source.
The assay “PDGFRα-Fc I139A + Y206A” addresses B8. Put plainly: MST; Monolith NT.115 Pico; read-out: dose-dependent photo-bleaching (fluorescence quenching) rate in a prolonged initial fluorescence segment (5 s) before the thermophoresis segment; 0.1 nmol/l NT-647-labelled PDGF-BB constant, PDGFRα-Fc variants in 16 concentrations over 5 log steps; 60% excitation power; one site binding model; IgG elution buffer neutralised with 0.1 M Tris pH 8.0, 0.025% Tween-20, 50 mM NaCl; 25°C. Conditions: both partners purified.

In the next assay the target is T2, PDGFRα-Fc V242K (UniProt P16234-1 24-528, V242K).
T2 construct: PDGFRα (CD140a), extracellular domain, aa 24 to 528, NCBI XP_005265800; Point mutant of m1; also called V242K single mutant; source: HEK 293 F suspension cells, transiently transfected (PEI), purified from the medium with Protein A beads
The assay can be described thus: MST; Monolith NT.115 Pico; read-out: dose-dependent changes of MST traces (F1 over F0; MST-on time 4-5 s in Fig 7, 1.5-2.5 s in Fig 10A); 0.1 nmol/l NT-647-labelled PDGF-BB constant, PDGFRα-Fc titrated; 60% excitation power; 0.025% Tween-20, 50 mM NaCl; 25°C. Conditions: both partners purified.

The assay “PDGFRα-Fc I139E + Y206S” has as its target B7. The assay is described as above. Conditions: both partners purified.
The assay “PDGFRα-Fc I139E” concerns the target B4. The assay can be described thus: MST; Monolith NT.115 Pico; read-out: dose-dependent photo-bleaching (fluorescence quenching) rate in a prolonged initial fluorescence segment (5 s) before the thermophoresis segment; 0.1 nmol/l NT-647-labelled PDGF-BB constant, PDGFRα-Fc variants in 16 concentrations over 5 log steps; 60% excitation power; one site binding model; IgG elution buffer neutralised with 0.1 M Tris pH 8.0, 0.025% Tween-20, 50 mM NaCl; 25°C. Conditions: both partners purified.

The target in the assay “PDGFRα-Fc Y206S” is B3. The assay is described as above. Conditions: both partners purified.
The assay “PDGFRα-Fc wild type” has as its target B1. The assay is described as above. Conditions: both partners purified.

This note sets out measurements from PMC8031885, “Targeted mutagenesis on PDGFRα-Fc identifies amino acid modifications that allow efficient inhibition of HCMV infection while abolishing PDGF sequestration” (PLoS Pathogens, 2021).

Changes are numbered by the printed parent chain. In names and notes the source's numbering stands.

With B1, the “EC50 for inhibition of PDGF signaling (6 ng/ml PDGF-BB, phospho-Akt ELISA, fibroblasts)” value in the assay with PDGF-BB is 13 ng/mL. In assay [1], the “EC50 of inhibition of HCMV TB40-BAC4-IE-GLuc infection of fibroblasts (Gaussia luciferase read-out)” value was under 20 ng/mL; the “EC50 of inhibition of HCMV TB40-BAC4 infection of fibroblasts and of endothelial cells (immediate-early antigen staining)” value was about 10 ng/mL. Moreover, the “HCMV inhibition EC50 (Table 2; differs from Table 1)” value in assay [2] is 4.6 ng/mL. The “HCMV inhibition EC50 (TB40-BAC4-IE-GLuc, fibroblasts, immediate-early antigen staining)” value in assay [3] is 5.6 ng/mL.
B2: in assay [1], the “HCMV inhibition EC50 (fibroblasts, immediate-early antigen staining)” value came out at 27 ng/mL.
Regarding B3, the “HCMV inhibition EC50 (TB40-BAC4-IE-GLuc, fibroblasts, immediate-early antigen staining)” value in [3] was determined as 31.1 ng/mL.
Regarding B4, in the assay with PDGF-BB, the “EC50 for inhibition of PDGF signaling (6 ng/ml PDGF-BB, phospho-Akt ELISA, fibroblasts); the paper says incomplete inhibition precludes a precise value” is about 2000 ng/mL. For the same molecule, the “HCMV inhibition EC50 (TB40-BAC4-IE-GLuc, fibroblasts, immediate-early antigen staining)” value in assay [3] stood at 32.8 ng/mL.
As to B5, the “HCMV inhibition EC50 (fibroblasts, immediate-early antigen staining)” value in assay [1] was found to be 47 ng/mL.
Consider B6, for which the Kd with PDGFRα-Fc I139A + Y206A came to 4.6 nM; with PDGFRα-Fc V242K, 92 nM; with PDGFRα-Fc I139E + Y206S, 200 nM; in the assay with PDGFRα-Fc I139E it was 4.02 nM; with PDGFRα-Fc Y206S it was 7.32 nM; with PDGFRα-Fc wild type, 0.14 nM.
Take B7: the “HCMV inhibition EC50 (TB40-BAC4-IE-GLuc, fibroblasts, immediate-early antigen staining)” value in assay [3] was 25.2 ng/mL.
Still for that read-out and setting: as for B8, the figure is 19.8 ng/mL.
